Measurements taken from patent US9127040B2, “Regulation of sodium channels by PLUNC proteins” (The University of North Carolina at Chapel Hill, priority 2011, dated 2015).
Ends that are not written are not given here.

Columns and labels:
βENaC-eGFP = target: T1, βENaC-eGFP (Homo sapiens, UniProt P51168); assay: Confocal imaging of βENaC-eGFP internalization in HEK cells; assay type: cell-based; settings: 1 h after 100 μM S18
T1 construct: expressed in transfected cells; host or cells: HEK cells
T1 sequence (P51168 whole entry, one chain of several): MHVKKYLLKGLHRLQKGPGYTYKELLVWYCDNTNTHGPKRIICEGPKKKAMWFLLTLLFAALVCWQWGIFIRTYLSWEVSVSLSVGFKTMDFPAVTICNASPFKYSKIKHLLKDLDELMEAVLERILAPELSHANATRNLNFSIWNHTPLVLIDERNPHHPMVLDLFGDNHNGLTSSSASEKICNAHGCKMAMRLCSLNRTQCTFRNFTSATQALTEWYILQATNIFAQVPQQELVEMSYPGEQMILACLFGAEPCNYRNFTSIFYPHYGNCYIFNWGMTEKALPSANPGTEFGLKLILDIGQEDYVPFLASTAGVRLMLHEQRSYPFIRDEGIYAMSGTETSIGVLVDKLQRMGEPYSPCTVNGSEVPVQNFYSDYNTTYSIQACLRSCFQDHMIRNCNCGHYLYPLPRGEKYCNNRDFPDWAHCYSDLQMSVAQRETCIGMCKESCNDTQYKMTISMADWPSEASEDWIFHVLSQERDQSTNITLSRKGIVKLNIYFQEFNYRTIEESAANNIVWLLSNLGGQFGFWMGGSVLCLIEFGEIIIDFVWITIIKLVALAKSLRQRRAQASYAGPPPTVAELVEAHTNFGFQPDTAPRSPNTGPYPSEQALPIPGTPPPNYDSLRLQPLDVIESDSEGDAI
T1 sequence (P51170 whole entry partner, one chain of several): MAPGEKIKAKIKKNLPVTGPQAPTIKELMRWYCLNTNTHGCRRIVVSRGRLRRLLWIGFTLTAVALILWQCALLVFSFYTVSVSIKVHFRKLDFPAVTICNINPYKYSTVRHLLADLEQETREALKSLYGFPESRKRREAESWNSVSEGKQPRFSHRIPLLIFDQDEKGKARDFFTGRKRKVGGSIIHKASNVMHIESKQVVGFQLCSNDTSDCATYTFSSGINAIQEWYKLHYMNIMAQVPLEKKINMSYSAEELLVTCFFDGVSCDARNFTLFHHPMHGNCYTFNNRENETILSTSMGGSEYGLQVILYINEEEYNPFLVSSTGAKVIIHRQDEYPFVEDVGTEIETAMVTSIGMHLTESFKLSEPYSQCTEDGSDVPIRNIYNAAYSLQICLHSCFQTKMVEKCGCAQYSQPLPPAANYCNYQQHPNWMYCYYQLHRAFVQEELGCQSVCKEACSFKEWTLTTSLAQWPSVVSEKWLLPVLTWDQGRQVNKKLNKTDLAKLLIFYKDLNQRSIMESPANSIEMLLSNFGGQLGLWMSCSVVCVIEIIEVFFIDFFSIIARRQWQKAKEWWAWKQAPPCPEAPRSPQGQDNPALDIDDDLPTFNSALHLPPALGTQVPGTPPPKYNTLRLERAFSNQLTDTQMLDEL
Source text: Ai, cartoon of αENaC-eGFP and βENaC-mCherry under basal conditions (γENaC not shown). Aii We hypothesize that S18 binding to the extracellular loop of βENaC (1) induces a conformational change in ENaC which is reflected as altered intracellular FRET (2). This change may facilitate NEDD4-2-induced ubiquitination (3), leading to internalization of αβγENaC (4). […] In contrast, exposure to aprotinin had no effect. All n=8-10. C, Typical confocal images of HEK cells expressing αγENaC and βENaC-eGFP before and 1 h after 100 μM S18. Cell outlines are traced in white.
Since ENaC is regulated by NEDD4-2 binding to its C-termini, which leads to ubiquitination of its N-termini and internalization, we propose that S18 causes a conformational change in ENaC, leading to increased ubiquitination followed by internalization (FIG. 21A). As a first step towards understanding the mechanism of action of SPLUNC1, we performed FRET on fluorescently tagged ENaCs. […] Furthermore, βENaC-eGFP internalized upon S18 binding (FIG. 21C), consistent with our surface biotinylation data from oocytes.

NL HBECs = assay: ASL height by confocal microscopy in normal lung (NL) HBECs; assay type: cell-based, human; settings: SPLUNC1 shRNA knockdown, 50 ng/ml rSPLUNC1 added to ASL
Experimental: To label airway surface liquid, Ringer containing Texas Red-dextran (2 mg/ml; Invitrogen) was added to human bronchial epithelial culture mucosal surfaces. Perfluorocarbon was added mucosally to prevent evaporation of the airway surface liquid and the culture placed in a chamber containing 100 μl Ringer on the stage of a Leica SP5 confocal microscope with a 63× glycerol immersion objective. 5 points per culture were scanned and an average airway surface liquid height determined. For confocal microscopy human bronchial epithelial cultures were bathed serosally in a modified Ringer solution containing (mM): 116 NaCl, 10 NaHCO3, 5.1 KCl, 1.2 CaCl2, 1.2 MgCl2, 20 TES, 10 glucose, pH 7.4). At all other times, human bronchial epithelial cultures were maintained in a modified BEGM growth medium which contained 24 mM NaHCO3 gassed with 5% CO2.
To label the ASL, PBS containing 10 kDa Rhodamine dextran (0.2-2 mg/mL; Invitrogen, Carlsbad, Calif., USA) was added to HBEC mucosal surfaces as previously described (Tarran et al., Mol. Cell 8:149 (2001)). When added, peptides with or without 100 nM neutrophil elastase, 1 U/mL aprotinin, activated neutrophil supernatant (ANS) (Haynes et al., Am. J. Physiol. Heart Circ. Physiol. 294:H379 (2008)) or 10 μM sivelestat (Sigma-Aldrich, St Louis, Mo., USA) were added to the mucosal surface along with the Rhodamine dextran. Bumetanide (100 μM) was added to the serosal solution.

αENaC = target: T2, αENaC (Homo sapiens, UniProt P37088); assay: Texas red-SPLUNC1 binding assay on JME cells expressing yfp-αENaC; parameters: expressed in transfected cells; host or cells: JME nasal epithelial cells that no longer express ENaC, lentivirus pQCXIN; settings: Texas red-rSPLUNC1, 30 min, polarized JME cells with yfp-αENaC; Hill fit
T2 sequence (P37088 1-669): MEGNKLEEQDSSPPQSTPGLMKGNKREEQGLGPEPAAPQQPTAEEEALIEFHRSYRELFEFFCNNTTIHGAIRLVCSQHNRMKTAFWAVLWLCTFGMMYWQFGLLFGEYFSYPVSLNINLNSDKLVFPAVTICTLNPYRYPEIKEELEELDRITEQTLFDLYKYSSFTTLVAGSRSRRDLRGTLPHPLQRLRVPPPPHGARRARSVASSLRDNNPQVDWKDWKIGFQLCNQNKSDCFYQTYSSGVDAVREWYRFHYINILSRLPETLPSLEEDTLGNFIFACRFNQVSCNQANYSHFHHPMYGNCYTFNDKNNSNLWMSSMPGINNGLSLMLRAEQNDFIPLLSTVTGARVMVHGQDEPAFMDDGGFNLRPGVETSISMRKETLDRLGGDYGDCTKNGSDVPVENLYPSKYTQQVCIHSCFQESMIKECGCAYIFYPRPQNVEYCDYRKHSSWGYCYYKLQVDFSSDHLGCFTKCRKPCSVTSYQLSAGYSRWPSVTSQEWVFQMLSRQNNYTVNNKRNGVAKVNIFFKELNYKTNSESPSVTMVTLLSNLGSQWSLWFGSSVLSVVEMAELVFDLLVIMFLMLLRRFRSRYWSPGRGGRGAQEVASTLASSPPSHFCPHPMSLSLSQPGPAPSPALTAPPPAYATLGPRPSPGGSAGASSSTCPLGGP
Experimental: JME cells were incubated with varying concentrations of Texas red-labeled SPLUNC1 for 30 min followed by a 5× wash with PBS. After this time images were acquired with a Nikon Ti-S inverted microscope and were quantified to obtain specific and non-specific binding using Image J. Data were then fitted with a Hill Plot to obtain the Kd.
JME nasal epithelial cells express functional ENaCs (Tong et al., Am. J. Physiol. Lung Cell. Mol. Physiol. 287:L928 (2004)). However, this attribute is lost after several passages. Thus, passaged JME cells that no longer expressed ENaC were stably infected with a lentivirus containing yfp-αENaC or an empty vector as a control and the presence or absence of αENaC was confirmed using an antibody that was constructed “in-house” that was directed against αENaC (FIG. 8).
Recombinant SPLUNC1 was labeled with Texas red according to the manufacturer's instructions (Pierce) and was freshly labeled on the day of each binding experiment. […] After this time yfp (514 nm excitation) and Texas red fluorescence (590 nm excitation) were imaged under a 60× water objective on a Nikon Ti-S inverted microscope equipped with an Orca CCD camera (Hamamatsu) switchable filter wheels (Ludl). Background fluorescence was subtracted from all images and the mean thresholded intensity was quantified to obtain specific and non-specific binding using Image J.

## GGLPVPLDQTLPLNVNPA [S18]
βENaC-eGFP
  βENaC-eGFP internalization: internalized

B1: SPLUNC1: human SPLUNC1 (SEQ ID NO:1), 256 amino acid secreted PLUNC family protein; rSPLUNC1 is the purified V5/6His-tagged recombinant form (protein, listed as Homo sapiens)
chain: MFQTGGLIVFYGLLAQTMAQFGGLPVPLDQTLPLNVNPALPLSPTGLAGSLTNALSNGLLSGGLLGILENLPLLDILKPGGGTSGGLLGGLLGKVTSVIPGLNNIIDIKVTDPQLLELGLVQSPDGHRLYVTIPLGIKLQVNTPLVGASLLRLAVKLDITAEILAVRDKQERIHLVLGDCTHSPGSLQISLLDGLGPLPIQGLLDSLTGILNKVLPELVQGNVCPLVNEVLRGLDITLVHDIVNMLIHGLQFVIKV
modifications: V5/6His tag in recombinant form
notes: rSPLUNC1 is the purified V5/6His-tagged recombinant form
NL HBECs
  regulation of airway surface liquid height in cultures lacking SPLUNC1: restored
NL HBECs; listed as recombinant SPLUNC1
  regulation of airway surface liquid height in cultures lacking SPLUNC1: sufficient to restore ASL volume regulation
αENaC
  Kd: 0.055 µg/mL
